From the supplement of paper PMC10724198

Experiments:
Saccharomyces cerevisiae [1] = test: protein stability index of tFT-peptide fusion in wild type (PSI (0-1 scale)); higher = more stable (slower turnover); conditions: genetic background: wild type
Protocol: (§1)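 MPS profiling in S. cerevisiae of two library types built from selected 12-aa C-degron peptides (IN1, IN2, LN1, LN3, VN2, R1-R5, W1-W3, Atg1 and Rpa12 C-termini): saturation mutagenesis libraries and C-terminal +1 capping libraries (13 aa). Each peptide is fused to the C-terminus of a sfGFP-mCherry timer, after a GGGS linker. Cells are FACS-sorted into 8 mCherry/sfGFP bins and sequenced. PSI runs from 0 (unstable) to 1 (stable), measured once in wild type and in the das1Δ or doa10Δ background.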

Saccharomyces cerevisiae [2] = test: protein stability index of tFT-peptide fusion in deletion strain of DAS1 (PSI (0-1 scale)); higher = more stable (slower turnover)
Protocol: as §1
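Throughout, for protein stability index of tFT-peptide fusion in deletion strain of DAS1: PSI is a weighted mean of each variant's read distribution over the sorted stability bins, computed only for variants having over 10 reads in total.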
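Throughout, for protein stability index of tFT-peptide fusion in wild type: PSI derived as read-weighted mean over the 8 sorting bins, only variants exceeding 10 total reads kept, mCherry placed adjacent to the peptide and sfGFP distal.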

Row | Sequence | protein stability index (Saccharomyces cerevisiae [1]) | protein stability index (Saccharomyces cerevisiae [2])
1 | ARWREGLWRGAS | 0.673 | 0.695
2 | ARWRVGCWRGAS | 0.524 | 0.637
3 | ARWRVGDWRGAS | 0.665 | 0.714
4 | ARWRVGIWRGAS | 0.344 | 0.691
5 | ARWRVGKWRGAS | 0.327 | 0.687
6 | ARWRVGLCRGAS | 0.657 | 0.671
7 | ARWRVGLHRGAS | 0.63 | 0.685
8 | ARWRVGLIRGAS | 0.561 | 0.665
9 | ARWRVGLWLGAS | 0.467 | 0.618
10 | ARWRVGLWMGAS | 0.622 | 0.667
11 | ARWRVGLWRGAG | 0.254 | 0.64
12 | ARWRVGLWRGAH | 0.536 | 0.688
13 | ARWRVGLWRGASE | 0.663 | 0.666
14 | ARWRVGLWRGASL | 0.719 | 0.715
15 | ARWRVGLWRGASN | 0.658 | 0.689
16 | ARWRVGLWRGASY | 0.653 | 0.69
17 | ARWRVGLWRGDS | 0.667 | 0.688
18 | ARWRVGLWRGMS | 0.202 | 0.663
19 | ARWRVGLWRIAS | 0.088 | 0.677
20 | ARWRVGLWRQAS | 0.0958 | 0.678
21 | ARWRVGLWRVAS | 0.0841 | 0.67
22 | ARWRVGLWYGAS | 0.603 | 0.718
23 | ARWRVGVWRGAS | 0.304 | 0.686

Row | Sequence | protein stability index (Saccharomyces cerevisiae [1]) | protein stability index (Saccharomyces cerevisiae [2])
24 | ARWWVGLWRGAS | 0.508 | 0.742
25 | CDSCGYKFRTNN | 0.251 | 0.691
26 | CKHKKGQKQKIN | 0.0815 | 0.568
27 | CTMCGYKFRTNN | 0.236 | 0.69
28 | CTSAGYKFRTNN | 0.303 | 0.678
29 | CTSCGHKFRTNN | 0.256 | 0.706
30 | CTSCGRKFRTNN | 0.456 | 0.717
31 | CTSCGSKFRTNN | 0.549 | 0.692
32 | CTSCGYKFLTNN | 0.332 | 0.696
33 | CTSCGYKFQTNN | 0.175 | 0.723
34 | CTSCGYKFRSNN | 0.508 | 0.715
35 | CTSCGYKFRTGN | 0.581 | 0.701
36 | CTSCGYKFRTNI | 0.601 | 0.701
37 | CTSCGYKFRTNNL | 0.723 | 0.715
38 | CTSCGYKFRTNNQ | 0.681 | 0.673
39 | CTSCGYKFRTNV | 0.53 | 0.681
40 | CTSCGYKFRTWN | 0.288 | 0.727
41 | CTSCGYTFRTNN | 0.245 | 0.708
42 | CTSCIYKFRTNN | 0.163 | 0.666
43 | CTSCPYKFRTNN | 0.261 | 0.666
44 | CTSYGYKFRTNN | 0.145 | 0.688
45 | EKHKKGQKQKIN | 0.178 | 0.613
46 | FKMRWTFRYWVN | 0.119 | 0.735

Row | Sequence | protein stability index (Saccharomyces cerevisiae [1]) | protein stability index (Saccharomyces cerevisiae [2])
47 | FLMRWTFRYWVN | 0.0449 | 0.342
48 | FPMRWTFRYWVN | 0.062 | 0.574
49 | FSHRWTFRYWVN | 0.0512 | 0.568
50 | FSLAASFWRVVG | 0.121 | 0.671
51 | FSMNWTFRYWVN | 0.0654 | 0.496
52 | FSMQWTFRYWVN | 0.0371 | 0.466
53 | FSMRMTFRYWVN | 0.0474 | 0.464
54 | FSMRWTFGYWVN | 0.0637 | 0.404
55 | FSMRWTFMYWVN | 0.0968 | 0.456
56 | FSMRWTFQYWVN | 0.0522 | 0.502
57 | FSMRWTFRLWVN | 0.028 | 0.291
58 | FSMRWTFRNWVN | 0.0567 | 0.589
59 | FSMRWTFRYAVN | 0.158 | 0.585
60 | FSMRWTFRYWVNA | 0.163 | 0.496
61 | FSMRWTFVYWVN | 0.0513 | 0.327
62 | FSMRWTKRYWVN | 0.0745 | 0.545
63 | FSMRWVFRYWVN | 0.077 | 0.495
64 | FSMVWTFRYWVN | 0.0843 | 0.314
65 | FSQRWTFRYWVN | 0.0417 | 0.563
66 | GKILRQKMNHQN | 0.263 | 0.677
67 | HRWRVGLWRGAS | 0.457 | 0.676
68 | IRWRVGLWRGAS | 0.163 | 0.707
69 | KGHKKGQKQKIN | 0.108 | 0.57

Row | Sequence | protein stability index (Saccharomyces cerevisiae [1]) | protein stability index (Saccharomyces cerevisiae [2])
70 | KKAKKGQKQKIN | 0.106 | 0.624
71 | KKHDKGQKQKIN | 0.0762 | 0.587
72 | KKHKGGQKQKIN | 0.0809 | 0.584
73 | KKHKKGQKDKIN | 0.652 | 0.63
74 | KKHKKGQKQKGN | 0.61 | 0.616
75 | KKHKKGQKQKINI | 0.649 | 0.661
76 | KKHKKGQKQKINV | 0.647 | 0.657
77 | KKHKKGQKQKINY | 0.643 | 0.663
78 | KKHKKGQKQKIR | 0.676 | 0.595
79 | KKHKKGQKQKVN | 0.208 | 0.599
80 | KKHKKGQKQKWN | 0.305 | 0.587
81 | KKHKKGQKQQIN | 0.404 | 0.554
82 | KKHKKGQKRKIN | 0.275 | 0.655
83 | KKHKKGQQQKIN | 0.162 | 0.571
84 | KKHKKGSKQKIN | 0.0787 | 0.673
85 | KKHKKHQKQKIN | 0.0431 | 0.521
86 | KKHKKIQKQKIN | 0.0571 | 0.631
87 | KKHKKMQKQKIN | 0.027 | 0.571
88 | KKHKKWQKQKIN | 0.0352 | 0.585
89 | KKHKQGQKQKIN | 0.0536 | 0.73
